Measurements published in patent US11111484B2, “Streptococcus bacteriophage lysins for detection and treatment of gram positive bacteria” (priority 2011, dated 2021).

Key:
[1] = PlySs2 solubility / concentrated solution; assay type: physicochemical; settings: ≈20 mg/ml solution
Procedure: The aforementioned preparation led to a highly pure lysin preparation in just two chromatographic steps (FIG. 6). With a predicted pi of 9.01, PlySs2 flowed directly through the DEAE column at pH=7.4 leaving the bulk of the contaminant proteins stuck to the DEAE column. PlySs2 eluted cleanly in the shoulder of the flow through and at 17 mM NaCl, being purified from proteins that rapidly flowed through the CM resin. This preparation yielded ≈60 mg of protein per liter of E. coli culture at ≈1.5 mg/ml with >99% purity. The yield increased to ≈150 mg per liter of E. coli culture at ≈2.0 mg/ml with >90% purity when the CM column step was forwent. If necessary, the latter product was: dialyzed (into 5 mM PB, 15 mM NaCl); lyophilized; reconstituted (at 10% of the original volume); centrifuged; and filter-sterilized (to remove any insoluble material). […] PlySs2 can be produced more efficiently, and at a higher concentration, than many published lysins (Daniel A et al (2010) Antimicrob Agents Chemother 54(4):1602-1612; Wang, Y. et al (2009) Curr Microbiol 58(6):609-615; Nelson, D et al (2006) Proc Natl Acad Sci USA 103(28):10765-10770).
PlySs2 is more tractable and stable than previously developed lysins. PlySs2 preparation is straightforward, yielding large quantities in few steps. In addition, a highly soluble lysin is essential, because it allows for ready use at high concentrations. […]

[2] = tested on: Listeria strains; assay: PlySs2 lytic activity against species and strains (FIG. 25); assay type: cell-based; settings: 32 μg/ml, 60 minutes
Procedure: (§1) FIG. 25 provides PlySs2 activity against different species and strains. Log-phase cultures were exposed to 32 μg/ml PlySs2 for 60 minutes in phosphate buffer. The final OD600 of the treated samples were divided by the final OD600 of the untreated samples to generate the normalized values above. Multiple Staphylococci (including, but not limited to: MRSA, MSSA, and VISA), Streptococci, Listeria, Enterococci, and Bacilli were tested for susceptibility to PlySs2 activity. Escherichia and Pseudomonas were tested as Gram-negative controls.

[3] = tested on: Pseudomonas; assay: as above; assay type: cell-based; settings: Gram-negative control
Procedure: as §1

[4] = tested on: S. gordonii 10558; assay: ΔPlySs1 OD600 lysis, 1 hr, optimal buffering conditions; assay type: cell-based, Streptococcus gordonii
[5] = tested on: S. uberis 27598; assay: as above; assay type: cell-based
[6] = tested on: S. oralis 35037; assay: as above; assay type: cell-based, Streptococcus oralis
[7] = tested on: S. agalactiae 090R; assay: as above; assay type: cell-based, Streptococcus agalactiae
[8] = tested on: S. pyogenes A486; assay: as above; assay type: cell-based, Streptococcus pyogenes
[9] = tested on: S. suis ST3; assay: as above; assay type: cell-based, Streptococcus suis
Procedure: (§2) Truncated PlySs1(ΔPlySs1) lysin activity was determined against different cell types. Given the above experiments, the following optimal buffering conditions were employed for all further in vitro experiments with ΔPlySs1: 20 mM phosphate buffer, pH=7.8, 2 mM EDTA. A range of lysin concentrations, from 6.5-130 μg/ml, were introduced to live S. suis cells in this buffer. Three strains were considered particularly relevant: 7711, the serotype 7 strain that encodes PlySs1; S735, the serotype 2 reference strain; and 7997, a highly virulent serotype 9 strain. In terms of bacterial viability, only the highest PlySs1-concentration (130 μg/ml) led to a >90% decrease in CFUs for 7711, S735, and 7997 after 1 hr treatment (TABLE 2). The lysin was also tested against actively-dividing cells in broth culture (strain 7711) (FIG. 20).
(§3) ΔPlySs1 was further tested against a panel of 19 other S. suis strains of diverse serotypes, as well as other species of Gram-positive bacteria. The same lysin concentrations were used as above. For each dosage, the observed lysis values after 1 hr are listed in TABLE 3 and TABLE 4, and the information is summarized graphically in FIG. 21.

[10] = tested on: S. suis ST7; assay: as above; assay type: cell-based, Streptococcus suis
Procedure: as §2, §3

[11] = tested on: S. suis 7197 (ST7); assay: as above; assay type: cell-based, Streptococcus suis
Procedure: as §2, §3

[12] = tested on: S. suis ST4; assay: as above; assay type: cell-based, Streptococcus suis
Procedure: as §2, §3

[13] = tested on: S. suis ST10; assay: as above; assay type: cell-based, Streptococcus suis
Procedure: as §2, §3

B1: PlySs2: Streptococcus suis prophage lysin, SEQ ID NO:3; N-terminal CHAP domain and C-terminal SH3-type 5 domain (protein, listed as Streptococcus suis)
chain: MTTVNEALNNVRAQVGSGVSVGNGECYALASWYERMISPDATVGLGAGVGWVSGAIGDTISAKNIGSSYNWQANGWTVSTSGPFKAGQIVTLGATPGNPYGHVVIVEAVDGDRLTILEQNYGGKRYPVRNYYSAASYRQQVVHYITPPGTVAQSAPNLAGSRSYRETGTMTVTVDALNVRRAPNTSGEIVAVYKRGESFDYDTVIIDVNGYVWVSYIGGSGKRNYVATGATKDGKRFGNAWGTFK
[1]
  activity after lyophilization and reconstitution to concentrated solution: retained the concentration-adjusted activity
[2]
  strains lysed of strains tested: 2 of 6
[3]
  lytic activity: did not display activity

B2: ΔPlySs1: truncated PlySs1 lysin, SEQ ID NO:2, N-terminal 254 amino acids: only N-terminal enzymatic and central binding domains (protein, listed as Streptococcus suis)
chain: MTINLETSIRWMSDRVGKVSYSMDYRNGPNSYDCSSAVYYALMAGGAISAGWAVNTEYMHDWLIRNGYVLVAENKPFNAQRHDVCILGKRGYSSGAGGHVVIFVDNVNVIHCNYARNGISIDNYNQVHRGMYYYLYRPANQPSISNKSLDQLVKETLAGVHGNGDTRKASLGSQYEAVMAVINGKASASEKSDEELAREVLAGKHGAGEDRKRSLGPRYEPVQAKVNELLKAKEKPSETAKNEPQTVQFKEDGDL
[4]; 6.5 μg/ml
  lysis value after 1 hr (treated/untreated OD600 ratio): 0.76
[4]; 13 μg/ml
  lysis value after 1 hr (treated/untreated OD600 ratio): 0.32
[4]; 30 μg/ml
  lysis value after 1 hr (treated/untreated OD600 ratio): 0.19
[4]; 65 μg/ml
  lysis value after 1 hr (treated/untreated OD600 ratio): 0.09
[4]; 130 μg/ml
  lysis value after 1 hr (treated/untreated OD600 ratio): 0.06
[5]; 6.5 μg/ml
  lysis value after 1 hr (treated/untreated OD600 ratio): 0.42
[5]; 13 μg/ml
  lysis value after 1 hr (treated/untreated OD600 ratio): 0.23
[5]; 30 μg/ml
  lysis value after 1 hr (treated/untreated OD600 ratio): 0.16
[5]; 65 μg/ml
  lysis value after 1 hr (treated/untreated OD600 ratio): 0.14
[5]; 130 μg/ml
  lysis value after 1 hr (treated/untreated OD600 ratio): 0.12
[6]; 6.5 μg/ml
  lysis value after 1 hr (treated/untreated OD600 ratio): 0.30
[6]; 13 μg/ml
  lysis value after 1 hr (treated/untreated OD600 ratio): 0.13
[6]; 30 μg/ml
  lysis value after 1 hr (treated/untreated OD600 ratio): 0.08
[6]; 65 μg/ml
  lysis value after 1 hr (treated/untreated OD600 ratio): 0.07
[6]; 130 μg/ml
  lysis value after 1 hr (treated/untreated OD600 ratio): 0.04
[7]; 6.5 μg/ml
  lysis value after 1 hr (treated/untreated OD600 ratio): 0.97
[7]; 13 μg/ml
  lysis value after 1 hr (treated/untreated OD600 ratio): 0.99
[7]; 30 μg/ml
  lysis value after 1 hr (treated/untreated OD600 ratio): 0.97
[7]; 65 μg/ml
  lysis value after 1 hr (treated/untreated OD600 ratio): 0.98
[7]; 130 μg/ml
  lysis value after 1 hr (treated/untreated OD600 ratio): 0.93
[8]; 6.5 μg/ml
  lysis value after 1 hr (treated/untreated OD600 ratio): 0.12
[8]; 13 μg/ml
  lysis value after 1 hr (treated/untreated OD600 ratio): 0.13
[8]; 30 μg/ml
  lysis value after 1 hr (treated/untreated OD600 ratio): 0.13
[8]; 65 μg/ml
  lysis value after 1 hr (treated/untreated OD600 ratio): 0.11
[8]; 130 μg/ml
  lysis value after 1 hr (treated/untreated OD600 ratio): 0.10
[9]; 6.5 μg/ml
  1-hour treated/untreated OD600-ratio: 0.81
[9]; 13 μg/ml
  1-hour treated/untreated OD600-ratio: 0.71
[9]; 30 μg/ml
  1-hour treated/untreated OD600-ratio: 0.48
[9]; 65 μg/ml
  1-hour treated/untreated OD600-ratio: 0.32
[9]; 130 μg/ml
  1-hour treated/untreated OD600-ratio: 0.16
[10]; 6.5 μg/ml
  1-hour treated/untreated OD600-ratio: 0.65
[10]; 13 μg/ml
  1-hour treated/untreated OD600-ratio: 0.47
[10]; 30 μg/ml
  1-hour treated/untreated OD600-ratio: 0.34
[10]; 65 μg/ml
  1-hour treated/untreated OD600-ratio: 0.22
[10]; 130 μg/ml
  1-hour treated/untreated OD600-ratio: 0.11
[11]; 6.5 μg/ml
  1-hour treated/untreated OD600-ratio: 0.64
[11]; 13 μg/ml
  1-hour treated/untreated OD600-ratio: 0.49
[11]; 30 μg/ml
  1-hour treated/untreated OD600-ratio: 0.39
[11]; 65 μg/ml
  1-hour treated/untreated OD600-ratio: 0.16
[11]; 130 μg/ml
  1-hour treated/untreated OD600-ratio: 0.07
[12]; 6.5 μg/ml
  1-hour treated/untreated OD600-ratio: 0.63
[12]; 13 μg/ml
  1-hour treated/untreated OD600-ratio: 0.47
[12]; 30 μg/ml
  1-hour treated/untreated OD600-ratio: 0.32
[12]; 65 μg/ml
  1-hour treated/untreated OD600-ratio: 0.22
[12]; 130 μg/ml
  1-hour treated/untreated OD600-ratio: 0.12
[13]; 6.5 μg/ml
  1-hour treated/untreated OD600-ratio: 0.85
[13]; 13 μg/ml
  1-hour treated/untreated OD600-ratio: 0.72
[13]; 30 μg/ml
  1-hour treated/untreated OD600-ratio: 0.55
[13]; 65 μg/ml
  1-hour treated/untreated OD600-ratio: 0.44
[13]; 130 μg/ml
  1-hour treated/untreated OD600-ratio: 0.28
